According to article PMC6286077:

Biological target: phosphorylated PD-1 cytosolic domain, bound to large unilamellar vesicles (LUVs)
Assay: FRET or BRET

fold selectivity of PD-1 toward full-length Shp2 over Shp1: 29 fold
Substance: Shp1, full length, SNAP-Tag fused, labeled with SNAP-Cell 505 (from UniProt P29350 1-595) (enzyme)
